Assay results as given in the supplement of paper PMC10724198.
± gives the standard deviation of the averaged measurements.

Test system: Saccharomyces cerevisiae
Assay: protein stability index of tFT-peptide fusion (C-terminal peptide) (PSI (0-1 scale)); higher = more stable (slower turnover)
Details: genetic background: wild type; temperature: 30 C
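Note: PSI is a weighted mean of sequencing reads over stability bins, variants kept only with over 10 reads, mCherry proximal and sfGFP distal, peptide attached via GGGS linker.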

| Sequence | protein stability index |
| --- | --- |
| GRLLVSVFEVVH | 0.614 ± 0.14 |
| DLLTRAYPWPAE | 0.692 ± 0.024 |
| PPPLPPPPHGVP | 0.6889 ± 0.0066 |
| FLGGVGGLVLIG | 0.6672 ± 0.0047 |
| APPPHPRHPTHS | 0.777 ± 0.089 |
| RNYEGTKIEEQE | 0.7219 ± 0.0047 |
| RLGNVGVGVGVG | 0.616 ± 0.039 |
| LSPLPHGLPFST | 0.736 ± 0.015 |
| LPLRLVPLFSPP | 0.722 ± 0.025 |
| YPRPIPSISRTS | 0.731 ± 0.053 |
| RRLGCDFDTYKK | 0.718 ± 0.043 |
| VVIGCRRVLGCV | 0.583 ± 0.03 |
| ERLRSDSLSYDI | 0.714 ± 0.052 |
| PPLSPPPPPPVP | 0.688 ± 0.066 |
| GGGGERGGVKRG | 0.663 ± 0.02 |
| GRSYCTLVFVWK | 0.582 ± 0.011 |
| LSVEAGRGELLW | 0.69 ± 0.067 |
| PPPPTQPPARPP | 0.68 ± 0.014 |
| GGVGRGVGRGWG | 0.671 ± 0.03 |
| TGPSLDRALLDL | 0.6412 ± 0.002 |
| ASCAPGDVTQVG | 0.718 ± 0.038 |
| DHLQGRPDITDI | 0.72 ± 0.09 |
| PFSLPPPRPPRP | 0.684 ± 0.045 |
| VMVVKSSSNTNI | 0.641 ± 0.0077 |
| LRAVCDLTGSRV | 0.68 ± 0.072 |
| GPSTVPGHGSDT | 0.689 ± 0.021 |

| Sequence | protein stability index |
| --- | --- |
| CAGVGGGLVSLG | 0.688 ± 0.082 |
| VGFRMAMVVGGL | 0.519 ± 0.026 |
| QKKNNKTTKKTK | 0.686 ± 0.012 |
| RNKKKKEKKKVE | 0.693 ± 0.038 |
| FWIRGVTRCVWC | 0.724 ± 0.053 |
| PNHLDPPTLHVN | 0.714 ± 0.021 |
| TVRLAPCPLSDT | 0.744 ± 0.075 |
| GGGVWGGVFFRL | 0.647 ± 0.014 |
| LFFRVLDRLGEI | 0.726 ± 0.021 |
| TQYTDNQTPITK | 0.6673 ± 0.0027 |
| PGNFLSVSMSIC | 0.649 ± 0.051 |
| NRSFIITRSVLS | 0.683 ± 0.029 |
| GQGEPRRVWGVV | 0.6746 ± 0.005 |
| SGGVKGKKKGEK | 0.702 ± 0.043 |
| MRRAQADRVYRL | 0.7097 ± 0.0024 |
| GNIREEYGSTGI | 0.7226 ± 0.0032 |
| PPPLPAAHFSTP | 0.663 ± 0.022 |
| DSSPIESAVAPS | 0.716 ± 0.023 |
| ALQLLNPSLLKY | 0.786 ± 0.06 |
| LKFLFTYLGFLS | 0.532 ± 0.03 |
| SRFQFCCCLFFF | 0.578 ± 0.0074 |
| KKKKQNKRKRKT | 0.635 ± 0.0086 |
| SVINMLKPCNVI | 0.647 ± 0.05 |
| LSFAVFIDFFTA | 0.5223 ± 0.003 |
| EVRTRSSRIHRI | 0.709 ± 0.082 |
| VGLTGFSQLGDG | 0.675 ± 0.032 |

| Sequence | protein stability index |
| --- | --- |
| KKKNNRITVFKV | 0.636 ± 0.067 |
| PPSPPILPPRPP | 0.687 ± 0.015 |
| LSSPPHVRSSPF | 0.695 ± 0.029 |
| PPFASSPPFIFL | 0.705 ± 0.062 |
| FYRTRQSASPNV | 0.688 ± 0.046 |
| LSPPRSAPPPPR | 0.699 ± 0.014 |
| MGGMGRGGRREI | 0.692 ± 0.022 |
| GGFTAPLVLSPR | 0.686 ± 0.071 |
| TLTTVLSPHSHR | 0.716 ± 0.0073 |
| SVGPVGASIGGG | 0.6668 ± 0.0032 |
| HVTLGRGGVGPN | 0.681 ± 0.02 |
| SASVLVLRRSSP | 0.732 ± 0.074 |
| SPGARRRGGAGR | 0.659 ± 0.047 |
| AVAFELCDLTRG | 0.702 ± 0.038 |
| FPHPPPGPRALH | 0.691 ± 0.16 |
| QKTKEKKKKKRE | 0.708 ± 0.064 |
| DKKHRAPGIKIV | 0.5008 ± 0.0018 |
| GDLKWVGLGVQR | 0.687 ± 0.03 |
| PPPPTALPHPDL | 0.604 ± 0.012 |
| YSGFVVGASDTL | 0.601 ± 0.18 |
| ETVFESFEVKCG | 0.68 ± 0.022 |
| TQEKKGKIRGGI | 0.685 ± 0.0085 |
| EPPLPEPPLSRS | 0.705 ± 0.023 |
| AVFGLEAVMRRG | 0.753 ± 0.15 |
| APPPPPPAPQPP | 0.619 ± 0.067 |
| WGGGGGGSGACL | 0.6974 ± 0.0069 |

| Sequence | protein stability index |
| --- | --- |
| LFLARLSGHFGA | 0.728 ± 0.16 |
| SHGELLLGPVFL | 0.748 ± 0.009 |
| PPPPPLPSPTPP | 0.735 ± 0.024 |
| PRGHPPIPPPLP | 0.69 ± 0.035 |
| GSLGVWKGCGEG | 0.652 ± 0.018 |
| SFPLPSLSSPSS | 0.61 ± 0.075 |
| RHSAQRPRARHP | 0.79 ± 0.032 |
| GKRKEKLEQTAQ | 0.688 ± 0.027 |
| VSQLGTYICSYL | 0.687 ± 0.053 |
| LRGLAVWCGYFS | 0.619 ± 0.02 |
| THRAGLGANKGL | 0.696 ± 0.029 |
| GEKDGAVGRGEV | 0.614 ± 0.02 |
| DQDAPNRPVDSS | 0.695 ± 0.018 |
| PPIPSLPPASFP | 0.69 ± 0.044 |
| GFWWGCGGFCFC | 0.685 ± 0.023 |
| AGQGSISCWSKD | 0.707 ± 0.045 |
| KIVKNQKKKKQR | 0.732 ± 0.019 |
| LLPRSSPTPLAH | 0.735 ± 0.066 |
| EDKVRGQGSRHN | 0.722 ± 0.011 |
| GGGERFGLGGRM | 0.659 ± 0.049 |
| GWGMVLYRNMML | 0.6039 ± 0.0046 |
| NRDSRTLGSTVG | 0.6744 ± 0.0011 |
| NPQRGLNAQLFG | 0.656 ± 0.045 |
| CLRPGAPESSIP | 0.673 ± 0.1 |
| TVGSVAREGPFW | 0.696 ± 0.025 |
| SPPRPPPPSPPF | 0.768 ± 0.015 |

| Sequence | protein stability index |
| --- | --- |
| KSKKERREKKKA | 0.665 ± 0.031 |
| SSGASRWSRSKF | 0.762 ± 0.074 |
| PPPFSPLPLPPS | 0.71 ± 0.044 |
| PPRHPSPGLVPT | 0.722 ± 0.04 |
| DLIYRLHTANWR | 0.809 ± 0.034 |
| KKNKAKRKKYIV | 0.616 ± 0.03 |
| VLWLPPSPTPNL | 0.721 ± 0.1 |
| SQVRYIANRKDG | 0.635 ± 0.091 |
| GPRIVVLKDVII | 0.6403 ± 0.0063 |
| ICVSVLIRHREL | 0.545 ± 0.019 |
| RAPVRPSEYTRP | 0.681 ± 0.028 |
| VACYVDWSQNHR | 0.728 ± 0.06 |
| VALLKCTGTAQI | 0.61 ± 0.033 |
| VSVSSFCVLQSC | 0.547 ± 0.008 |
| FRIFGFLVCPIM | 0.6257 ± 0.0038 |
| RKSPRDTGLQRA | 0.706 ± 0.19 |
| APPARGTGRASL | 0.738 ± 0.017 |
| DPDPNHATGKIC | 0.616 ± 0.014 |
| PSPPPLPSPPSL | 0.738 ± 0.087 |
| SPPSLRLPPPPA | 0.772 ± 0.021 |
| RLTDPHWALIQS | 0.839 ± 0.2 |
| VRIGSEGPGREE | 0.677 ± 0.03 |
| AGEERWGGCLTG | 0.653 ± 0.021 |
| DLSCCVFLCLFF | 0.513 ± 0.044 |
| LPPPHPPTPAPP | 0.621 ± 0.075 |
| LLPAPPRLLPSS | 0.68 ± 0.024 |

| Sequence | protein stability index |
| --- | --- |
| HPTTHYLPRPAH | 0.6779 ± 0.0022 |
| AFYFGQFEFWRC | 0.698 ± 0.034 |
| LPYSAPPISLTN | 0.702 ± 0.011 |
| PLRGRRPIFPAP | 0.724 ± 0.088 |
| LTGHVGNMWDAA | 0.86 ± 0.025 |
| LRTLALSYTSLT | 0.664 ± 0.035 |
| KNTRIKKMKRRT | 0.827 ± 0.097 |
| GLVGPKDRVSGL | 0.701 ± 0.018 |
| GSRIGTVSIRRI | 0.691 ± 0.072 |
| NSSPRFPTPDNP | 0.6618 ± 0.00081 |
| LGLLGSLRTLSF | 0.667 ± 0.14 |
| RRRSAFRLIKEK | 0.677 ± 0.045 |
| WRCAGVGGVGGG | 0.708 ± 0.012 |
| NIRETVILRIMQ | 0.606 ± 0.048 |
| SFPPPLPPPLHP | 0.721 ± 0.06 |
| SFRYVGLTRVFG | 0.592 ± 0.032 |
| SYETLRTPARIA | 0.583 ± 0.043 |
| VLSYFFLFSCAS | 0.502 ± 0.098 |
| PTGLTNPPPCPQ | 0.716 ± 0.11 |
| VITAYHSLTYGA | 0.6878 ± 0.0038 |
| SSLTPRVSFIIF | 0.64 ± 0.12 |
| RCLGFSACPATY | 0.809 ± 0.14 |
| PSRDGNLYAQCR | 0.618 ± 0.048 |
| GGRGRGGEMGGR | 0.722 ± 0.033 |
| PTPGRSPKRLPE | 0.752 ± 0.026 |
| GGKREGEACRQE | 0.662 ± 0.13 |

| Sequence | protein stability index |
| --- | --- |
| GGWRGWAGENTR | 0.699 ± 0.035 |
| PHLPPSLFPSPP | 0.659 ± 0.073 |
| PFLRPPSPPSSP | 0.66 ± 0.013 |
| PFVPPPHRDDSP | 0.746 ± 0.082 |
| TQTLPPPLPPLL | 0.675 ± 0.02 |
| KGGKVGRAGEKG | 0.644 ± 0.098 |
| NSPKTKKTNFKE | 0.665 ± 0.017 |
| QLGALIAHSTTF | 0.665 ± 0.13 |
| TRECGRLRQAET | 0.723 ± 0.067 |
| ASRRMGGHNALS | 0.705 ± 0.013 |
| VGVAREGQVGAA | 0.694 ± 0.024 |
| DTGGGPQTSRWD | 0.715 ± 0.17 |
| PTHGPSPPNVAT | 0.6595 ± 0.00038 |
| GKGGITGWCCHH | 0.648 ± 0.04 |
| TSKTLHKTNNIK | 0.698 ± 0.028 |
| KTVVYDDRKQLR | 0.674 ± 0.0096 |
| SISLSLSQSDRR | 0.614 ± 0.016 |
| WFSRVSSASRRS | 0.7073 ± 0.00084 |
| STLTPLPLRASA | 0.5333 ± 0.005 |
| RGVLVTVNWVSG | 0.499 ± 0.038 |
| YPGVSRCGTRWV | 0.643 ± 0.046 |
| THCWQVLPCGLI | 0.723 ± 0.0089 |
| YEHPRLRNGSIM | 0.8 ± 0.24 |
| VDGRIYIGIISR | 0.677 ± 0.032 |
| RFAPCSPPADPS | 0.68 ± 0.019 |
| IKPKKKEKKQEN | 0.704 ± 0.046 |

| Sequence | protein stability index |
| --- | --- |
| YPGPFTGCSKIQ | 0.676 ± 0.069 |
| VFYVGGGAVVRG | 0.689 ± 0.023 |
| SLLLPPPPPSPH | 0.731 ± 0.042 |
| ALVAPAYYWGDV | 0.745 ± 0.059 |
| RCFQPLRQRMGR | 0.734 ± 0.064 |
| PVDDFVCLEVDS | 0.688 ± 0.061 |
| STNARRLWGRGV | 0.699 ± 0.033 |
| GTRWPLVAPRER | 0.7254 ± 0.0045 |
| SSRGSSSPPPHF | 0.709 ± 0.074 |
| RAKGILPESEQI | 0.72 ± 0.035 |
| LQCAVPPRDLTS | 0.645 ± 0.074 |
| YFETNINKYLRM | 0.7107 ± 0.00072 |
| PVGEEPRPRNVR | 0.674 ± 0.063 |
| PHPRSVSPPPPS | 0.624 ± 0.075 |
| SLAVAPHIATQQ | 0.701 ± 0.011 |
| VLSPLIGRICGH | 0.658 ± 0.01 |
| RRHLSLCLLPSL | 0.685 ± 0.011 |
| DCLSVWCSIPGA | 0.775 ± 0.086 |
| GEWIDVSGCRRG | 0.805 ± 0.28 |
| SHLKEHREEELE | 0.647 ± 0.0097 |
